T1: denatured human collagen type III (human, UniProt P02461 154-1221, limits assumed)
T1 construct: Bought human collagen III (ab7535, Abcam), denatured at 99 C for 15 minutes and then kept on ice for 5 minutes; also called denatured human collagen III
T1 sequence: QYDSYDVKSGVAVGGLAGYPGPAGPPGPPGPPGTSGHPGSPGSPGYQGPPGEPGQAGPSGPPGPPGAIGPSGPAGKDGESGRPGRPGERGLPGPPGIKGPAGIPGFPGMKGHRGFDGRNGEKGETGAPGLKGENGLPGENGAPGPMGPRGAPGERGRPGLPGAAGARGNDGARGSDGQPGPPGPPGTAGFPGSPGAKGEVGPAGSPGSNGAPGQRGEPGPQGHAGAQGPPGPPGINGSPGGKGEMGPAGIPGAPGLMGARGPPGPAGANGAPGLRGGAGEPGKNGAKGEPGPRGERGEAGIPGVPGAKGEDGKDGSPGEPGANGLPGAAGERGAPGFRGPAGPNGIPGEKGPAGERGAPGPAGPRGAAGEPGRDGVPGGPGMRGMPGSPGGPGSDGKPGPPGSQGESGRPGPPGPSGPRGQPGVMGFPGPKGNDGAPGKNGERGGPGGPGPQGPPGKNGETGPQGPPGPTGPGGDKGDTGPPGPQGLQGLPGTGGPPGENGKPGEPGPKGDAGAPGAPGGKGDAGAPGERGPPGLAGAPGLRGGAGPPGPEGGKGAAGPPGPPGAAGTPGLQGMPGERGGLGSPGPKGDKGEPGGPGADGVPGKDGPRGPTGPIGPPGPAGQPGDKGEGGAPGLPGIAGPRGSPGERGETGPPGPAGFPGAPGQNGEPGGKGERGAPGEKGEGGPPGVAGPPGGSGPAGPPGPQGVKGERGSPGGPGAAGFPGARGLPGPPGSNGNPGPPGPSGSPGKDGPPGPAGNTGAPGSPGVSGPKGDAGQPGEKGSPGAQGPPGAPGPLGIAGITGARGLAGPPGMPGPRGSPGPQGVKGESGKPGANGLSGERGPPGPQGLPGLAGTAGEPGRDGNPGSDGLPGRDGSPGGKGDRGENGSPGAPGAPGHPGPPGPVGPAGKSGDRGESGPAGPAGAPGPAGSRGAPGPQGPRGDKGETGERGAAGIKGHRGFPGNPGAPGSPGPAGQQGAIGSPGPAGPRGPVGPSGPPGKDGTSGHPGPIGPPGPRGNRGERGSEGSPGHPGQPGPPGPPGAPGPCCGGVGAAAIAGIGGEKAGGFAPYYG

B1: P27152798 (antibody, human IgG1, kappa, L234A L235A, V domains shown)
VH: QVTLKESGPALVKPTQTLTLTCTFSGFSLSTPGMGVWWIRQPPGKALEWLADIWWDDNKYTNPSLKSRLTISKDTSKNQVVLTMTNMDPVDTATYYCARRANYGNPYYAQDYWGQGTTVTVSS
VL: DIVMTQTPLSLPVTPGEPASISCRSSQSIVHSNANTYLEWYLQKPGQSPQLLIYKVSNRFSGVPDRFSGSGSGTDFTLKISRVEAEDVGVYYCFQGSHVPWTFGQGTKVEIKR
notes: also called VH chain D3 / VL chain B7A
B2: P27152716 (antibody, human IgG1, kappa, L234A L235A, V domains shown)
VH: B1 VH
VL: B1 VL with H31S, N33W, A34G
notes: produced by transient transfection in Expi293 cells and purified on MabSelect SuRe; also called VH chain D3 / VL chain D3
B3: P27122713 (antibody, human IgG1, kappa, L234A L235A, V domains shown)
VH: B1 VH with P32S, W37G, T61A
VL: B1 VL with A34G
notes: produced by transient transfection in Expi293 cells and purified on MabSelect SuRe; also called VH chain B7 / VL chain B7

Residue numbers refer to the chain shown, from its start. Names may count otherwise.

The target in this assay is T1, denatured human collagen type III. Description: ELISA, denatured collagen coated on plate, anti-human IgG peroxidase detection. How it is done: ELISA analysis. The binding activity and specificity of purified antibodies were determined by ELISA. Human collagens I (ab7533, Abcam), III (ab7535, Abcam), IV (ab7536, Abcam), an V (ab7537, Abcam), and mouse collagens I (NBP2-62423, NOVUS) and IV (3410-010-02, R&D) were used in ELISA analysis. “Denatured” collagen samples were prepared by incubation of collagens samples at 99° C. for 15 minutes followed by incubation on ice for 5 minutes Microtiter plates were coated with native or denatured collagen protein overnight at 4° C. The next day, plates were washed with PBS and blocked with 3% non-fat dry milk in PBS or 1% BSA. Serially diluted antibodies were added for binding to the coated antigen. Bound antibodies were detected with peroxidase-conjugated anti-human IgG secondary antibody (Jackson ImmunoResearch).
In the case of B1, the binding result is on record as “binds”.

In the case of B2, the binding result was “binds”.

Turning to B3, the binding result was “binds”.

The record behind these values is patent publication US20230257453A1 (PROVIVA THERAPEUTICS HONG KONG, published 2023).
